This is an account of results in paper PMC12914960, “Repurposing a detrimental antibody epitope as targeted therapeutics for sepsis and rheumatoid arthritis” (Military Medical Research, 2026).

In data set [1] the test system is CLP-induced sepsis in BALB/c mice. In words: Septic survival after cecal ligation and puncture (CLP). The format is in vivo, mouse. To be noted: P2 5.0 mg/kg twice at 2 h and 24 h post-CLP, i.p. The method, then:
Experimental sepsis was induced in BALB/c mice via CLP as previously described. […] The animals were randomly assigned to the control vehicle (n = 10 or n = 20) or experimental groups (n = 10 or n = 20). P2 (5.0 mg/kg), P2-1 (0.1 mg/kg or 1.0 mg/kg), or tetranectin N-terminal deletion mutant (ΔTN) (1.0 mg/kg) were administered intraperitoneally (i.p.) at the indicated time points, and survival rates were monitored. To elucidate P2-1’s protective mechanisms, a separate group of BALB/c mice (n = 4) underwent CLP and received P2-1 (1.0 mg/kg) at 2 h and 20 h post-CLP. At 24 h post-CLP, the animals were euthanized, blood was collected, and serum cytokines and chemokines were measured via murine cytokine antibody arrays as previously described. More details are presented in Additional file 1: Methods.
For these preclinical studies, animals were random ly assigned to experimental groups and treated with P2, P2-1, or a pCTS-L-neutralizing mAb2 according to the indicated dosing regimens. Outcomes, including septic survival rates, arthritis severity, pain sensitivity, and joint tissue histology scores, were collected under blinded experiment al conditions. The study d esign and sample si zes fo r each exp eriment are d etailed in the figure legends. No data, including outlier values, were excluded. For skewed data, outliers were defined via the interquartile range (IQR) method as any value below Q 1 –(1.5 × IQR) or above Q 3 + (1.5 × IQR). For normally distributed data, outliers were defined via the Z-score method as any value with an absolute Z-score greater than 2 or 3. The primary data are reported in Additional file 4. All the reagent sources are listed in Additional file 1: Table S1 .
Cecal ligation and puncture (CLP) sepsis model […]
screening. c Expression and purification of recombinant full-length human TN (residues 1 – 181) and its N-terminal deletion mutant ( ΔTN, residues 45 – 181). […] Recombinant Δ TN was given intraperitoneally at 24 h and 48 h post-C L P, and animal survival rates were monitored. *P < 0.0 5. […]

Data set [2] in a line: Water solubility. It is filed as physicochemical. As to conditions: qualitative, text in Fig. 1d.
The target in data set [3] is T1, Recombinant human high mobility group box 1 (HMGB1) (human, UniProt P09429 1-215).
T1 construct: high mobility group box 1 (HMGB1); the SPR methods say recombinant human HMGB1; the SPR paragraph says human; The protein on the chip may be that rat construct
T1 sequence (looked up): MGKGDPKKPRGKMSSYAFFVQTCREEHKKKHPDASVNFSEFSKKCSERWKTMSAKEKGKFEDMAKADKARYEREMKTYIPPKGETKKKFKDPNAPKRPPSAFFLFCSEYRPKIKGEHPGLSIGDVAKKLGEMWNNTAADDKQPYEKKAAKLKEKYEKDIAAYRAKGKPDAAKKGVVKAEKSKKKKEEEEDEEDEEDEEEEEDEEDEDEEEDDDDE
In words: SPR; Nicoya OpenSPR; recombinant human HMGB1 immobilized on a carboxyl sensor chip, P2-1 flowed over at various concentrations in HBS-P buffer; 1:1 interaction model; three independent experiments. To be noted: both partners purified. For orientation: Surface plasmon resonance follows binding to a sensor surface in real time, without labels.

In data set [4] the test system is synthetic TN peptides (P1 – P10). In words: Epitope mapping of mAb8 and mAb9 by dot blotting against TN peptides P1 – P10. It is filed as binding, human. As to conditions: 10 synthesized TN peptides, mAb 1.0 µg/ml, chemiluminescence. How it is done:
remove unbound protein and then fixed with 4% paraformaldehyde for 20 min at room temperature.
Coverslips were mounted onto slides via Vectashield Mounting Medium for fluorescen ce with DAPI (Cat.
#H-1200, Vector Laborat ories, Inc., Newark, CA, USA) for nuclear counterstaining. Endocytic uptake of Alexa Fluor 555- labeled HMGB1 (red) was visualized via the Olympus IX51 inverted fluorescence & phase contrast tissue culture microscope. Cellular HMGB1 uptake was quantified by measuring the mean fluorescen ce intensity of the Alex a- 555- labeled HMGB1 protein within multiple representative cells via ImageJ an alysis software.
Antibody sequencing and antigen contact structure (ACS) prediction
Total RNA was extracted from mAb8 and mAb9 hybridoma cells via TRIzol (Invitrogen, Austin, TX, USA), and cDNA was synthesized via reverse transcriptase. […]
Corresponding to the C-terminal portion of the TN protein (Additional file 1: Fig. S4a) , a library of 10 synthetic peptides (P1 – P10, Additional file 1: Fig. S4b ) was spotted (0.1 μ g in 2.5 μ l) onto nitrocellulose membranes (Cat No. 88013, Thermo Scientific, Waltham, MA, USA ). […] After washing, the membranes were incubated with HRP-conjugated goat anti-mouse IgG (Jackson ImmunoResearch, West Grove, PA, USA), and signals were detected via chemiluminescence as previously described [ 1].

The test system of data set [5] is CLP-induced sepsis in BALB/c mice. As to conditions: text in Fig. 1b; mAb8 22% to 77%, mAb9 80% to 50%; ref [21]; cited from earlier work.
Data set [6] concerns human PBMCs. In words: RNA-seq of HMGB1-stimulated PBMCs. The format is cell-based. The method, then: Total RNA was isolated from human PBMCs (n = 6 biological replicates) stimulated with HMGB1 in the absence or presence of P2-1 (5.0 or 10.0 µg/ml) via the RNeasy Mini Kit (Qiagen, Germantown, MD, USA) according to the manufacturer’s instructions. cDNA libraries were prepared using the TruSeq RNA Library Prep Kit v2 (Illumina, San Diego, CA, USA) and sequenced on an Illumina NovaSeq 6000 platform to generate 100 bp paired-end reads. Gene counts were quantified via StringTie and DESeq2 for differential gene expression analysis. Volcano plots and heatmaps were generated via ggplot2 and pheatmap packages in R, respectively. Genes with an adjusted P-value < 0.05 and a |log2 fold change|> 1 were considered differentially expressed. […]
custom-synthesized (Gen Script, Piscataway, NJ, USA). P2 -1 was engineered to: i) increase solubility by removing a w ater-insoluble phenylalanine (F) at the C-terminal residue 70 and introducing a water-soluble threonine (T) at N-t erminal residue 54; and ii) reduce oxidative susceptibility by substituting methionine (M) with norleucine (Nle) and cysteine (C) with serine (S), respectively. The pCTS -L-neutralizing mAbs (mAb2) and TN-neutrali zing mAbs (mAb8 and m Ab9) were generated in BALB/c and C57BL/6 m ice as previously described .
RNA sequencing (RNA- Seq) and bioinformatics analysis
Total RNA was isolated from human PBMCs (n= 6 biological replicates) stimulated with HMGB1 in the absence o r pres ence o f P2-1 (5.0 or 10.0 µg/ml) via the RNeasy Mini Kit (Qiagen, Germantown, MD, USA) according to the manufacturer ’s instructions. RNA quantity and quality were assessed via a NanoDrop spectrophotometer, which requires A260/280 and A260/230 ratios to both be > 1.8. Samples meeting these criteria were then sent to two sequencing facilities, where RNA integrity was further confirmed via an Agilent Bioanalyzer. Only samples with an RNA integrity number of 8 or above were accepted for RNA sequencing. cDNA libraries were prepared using the TruSeq RNA Library Prep Kit v2 (Illumina, San Diego, CA, USA) and sequenced on an Illumina NovaSeq 6000 platform to generat e 100 bp paired-end reads. Our data filtering criteria adhered to industry best practices to ensure data quality.
First, raw sequencing reads underwent quality assessment with FastQC, followed by adapter and low-quality nucleotide trimming using Trimmomatic v.0.36. Subsequently, the high- quality reads wer e aligned to the Homo sapiens GRCh38 reference genome using the STAR aligner v.2.5.2b. Following alignment, PCR duplicates were identified and removed with Picard tools to mitigate amplification bias. Before differential expression an alysis, the gene count matrix was filtered to retain only genes with a count-per-million (CPM) > 1 in at least three samples (n = 3, representing our smallest experimental group). This rigorous procedure ensured that analysis was perfo rmed on a robust set of reliably expressed gen es. Finally, gene counts were quantified via StringTie and DESeq2 for differential gene expression analysis. Volcano

Where no end group is shown, it is not given here. [ ]: non-standard residue; d: D form. Nle = CCCC[C@H](N)C(=O)O

In the case of KVHMKCFLAFQTKTF [P2], the “septic survival, in words” value in data set [1] was “significantly increased survival rates in both male and female mice”. Also, the Water solubility entry in data set [2] was “Poor water solubility”.

TKVH[Nle]KSFLAFQTKT [P2-1 peptide, water-soluble derivative of the tetranectin P2 epitope peptide]: in data set [3], the dissociation constant Kd (usually the equilibrium constant for the complex coming apart) was 16.9 nM.

B1: mAb8: protective anti-tetranectin monoclonal antibody (antibody, V domains shown)
VH: DVNLVESGGGLVKLGGSLKLSCADSGFTFSSYYMSWVRQTPEKRLELVAAINSNGGRTYYPDTVKGRFTISRDNAKNTLYLQMSSLKSEDTALYYCARQGKNGLDYWGQGTSVTVSS
VL: DIQMTQTTSSLSASLGDRVTISCRASQDISNHLNWYQQKPDGTIKLLIYYTSRLHSGVPSRFSGSGSGTDFSLSISNLEQEDIATYFCQQGKTLPPTFGGGTKLEIK
In the case of B1, the “epitope peptide recognised (dot blot)” value in data set [4] is reported as “targeted P5”. The survival in sepsis in data set [5] is reported as 77%.

B2: HMGB1: recombinant HMGB1 protein used as stimulus (protein)
chain: MGKGDPKKPRGKMSSYAFFVQTCREEHKKKHPDASVNFSEFSKKCSERWKTMSAKEKGKFEDMAKADKARYEREMKTYIPPKGETKKKFKDPNAPKRPPSAFFLFCSEYRPKIKGEHPGLSIGDVAKKLGEMWNNTAADDKQPYEKKAAKLKEKYEKDIAAYRAKGKPDAAKKGVVKAEKSKKKKEEEEDEEDEEDEEEEEDEEDEDEEEDDDDE
B2: the “Log2 Fold change” value in data set [6] (CXCL5 (ENA-78), P-adjust 3.97E-166) came out at 9.951; in data set [6] (CXCL8 (IL-8), P-adjust 1.17E-133), 5.985; in data set [6] (IL1B (IL-1β), P-adjust 1.29E-157), 8.223; in data set [6] (MT1G (Metallothionein-1G), P-adjust 9.98E-141), 9.377. Besides, the “Ctsl mRNA upregulation” value in data set [6] (HMGB1-only group, human PBMCs) was 3.4 ± 0.3 -fold.
